In PMC5377774:

Target: His827 (UniProt position 827, GQFLDHDLDST)
Assay: kinetics (stopped-flow UV-vis spectroscopy)
Conditions: 25 °C (stated for the stopped-flow reactions in general; not restated for the pH profile); Citrate phosphate buffer pH 4-5.5; phosphate buffer pH 5.5-8; carbonate buffer pH 9 and 10. A concentration of 100 mM is given for the analogous bromide pH profile in the Fig. 7D caption.; Ferric high-spin resting enzyme reacting with H2O2 to form compound I; heme covalently linked

Peroxidasin 1, truncated construct hsPxd01-con4 (four Ig domains + peroxidase domain) (Homo sapiens)
pKa: ∼4.7
